The values that follow come from ChEMBL document CHEMBL2074524, “Delineating the contribution of secretory transporters in the efflux of etoposide using Madin-Darby canine kidney (MDCK) cells overexpressing P-glycoprotein (Pgp), multidrug resistance-associated protein (MRP1), and canalicular multispecific organic anion transporter (cMOAT)” (Drug Metab Dispos, 2002).

Data set [1] deals with Multidrug resistance-associated protein 1 (Homo sapiens, UniProt P33527). The data set is described as follows: TP_TRANSPORTER: transepithelial transport (basal to apical) in MRP1-expressing MDCKII cells. Format: functional, cell-based. Conditions: dog, mdck-ii.
Chain of Multidrug resistance-associated protein 1 (P33527 whole entry): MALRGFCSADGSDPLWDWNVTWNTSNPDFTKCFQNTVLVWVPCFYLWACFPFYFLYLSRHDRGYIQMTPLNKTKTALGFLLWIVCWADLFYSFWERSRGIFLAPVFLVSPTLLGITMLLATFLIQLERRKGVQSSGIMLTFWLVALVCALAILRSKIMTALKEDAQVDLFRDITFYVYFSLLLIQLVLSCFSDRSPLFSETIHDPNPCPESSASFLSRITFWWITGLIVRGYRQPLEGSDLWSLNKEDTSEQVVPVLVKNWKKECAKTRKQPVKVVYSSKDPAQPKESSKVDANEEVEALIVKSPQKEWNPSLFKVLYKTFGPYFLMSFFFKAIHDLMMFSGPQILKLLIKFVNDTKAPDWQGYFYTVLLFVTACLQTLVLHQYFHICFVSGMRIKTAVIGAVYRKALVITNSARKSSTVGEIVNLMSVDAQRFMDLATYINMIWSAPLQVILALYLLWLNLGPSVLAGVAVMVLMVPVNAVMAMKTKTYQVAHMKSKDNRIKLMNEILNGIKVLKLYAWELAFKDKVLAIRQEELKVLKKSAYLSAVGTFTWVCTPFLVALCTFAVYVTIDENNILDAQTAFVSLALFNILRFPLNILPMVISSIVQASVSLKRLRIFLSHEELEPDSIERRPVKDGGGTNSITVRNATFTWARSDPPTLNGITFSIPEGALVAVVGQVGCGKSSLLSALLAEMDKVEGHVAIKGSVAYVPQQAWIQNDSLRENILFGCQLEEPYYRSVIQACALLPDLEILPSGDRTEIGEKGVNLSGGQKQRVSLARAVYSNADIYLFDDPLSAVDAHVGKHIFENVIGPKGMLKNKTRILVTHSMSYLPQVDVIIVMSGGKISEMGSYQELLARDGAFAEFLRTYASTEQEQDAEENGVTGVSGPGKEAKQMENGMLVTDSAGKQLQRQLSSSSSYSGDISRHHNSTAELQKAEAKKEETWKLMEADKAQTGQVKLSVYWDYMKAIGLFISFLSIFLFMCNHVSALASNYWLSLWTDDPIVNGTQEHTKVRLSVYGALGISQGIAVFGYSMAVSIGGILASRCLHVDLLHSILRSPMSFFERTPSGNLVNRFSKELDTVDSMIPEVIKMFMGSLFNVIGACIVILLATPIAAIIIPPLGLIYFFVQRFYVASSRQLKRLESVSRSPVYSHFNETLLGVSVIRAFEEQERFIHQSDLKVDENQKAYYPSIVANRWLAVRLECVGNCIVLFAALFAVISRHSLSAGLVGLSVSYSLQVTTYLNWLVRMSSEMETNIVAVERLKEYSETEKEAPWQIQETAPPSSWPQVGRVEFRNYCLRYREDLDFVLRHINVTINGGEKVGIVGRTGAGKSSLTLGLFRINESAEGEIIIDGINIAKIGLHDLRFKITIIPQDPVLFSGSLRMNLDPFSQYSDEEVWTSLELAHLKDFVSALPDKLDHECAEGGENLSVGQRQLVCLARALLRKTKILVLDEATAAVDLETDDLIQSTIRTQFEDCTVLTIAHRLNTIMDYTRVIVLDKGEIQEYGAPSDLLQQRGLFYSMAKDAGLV
For data set [2], the system named is COc1cc([C@@H]2c3cc4c(cc3[C@@H](O[C@@H]3O[C@@H]5CO[C@@H](C)O[C@H]5[C@H](O)[C@H]3O)[C@H]3COC(=O)[C@H]23)OCO4)cc(OC)c1O. Description: TP_TRANSPORTER: transepithelial transport (basal to apical) in MDR1-expressing MDCKII cells. Format: functional, cell-based, MDCK-II.
Substrate in data set [3]: COc1cc([C@@H]2c3cc4c(cc3[C@@H](O[C@@H]3O[C@@H]5CO[C@@H](C)O[C@H]5[C@H](O)[C@H]3O)[C@H]3COC(=O)[C@H]23)OCO4)cc(OC)c1O
Description: TP_TRANSPORTER: transepithelial transport (basal to apical) in MRP2-expressing MDCKII cells. Format: functional, cell-based, MDCK-II.

On to `COc1cc([C@@H]2c3cc4c(cc3[C@@H](O[C@@H]3O[C@@H]5CO[C@@H](C)O[C@H]5[C@H](O)[C@H]3O)[C@H]3COC(=O)[C@H]23)OCO4)cc(OC)c1O` [ETOPOSIDE], for which the Activity result in data set [1] was “is not a substrate [-]”.

Regarding “ATP-dependent translocase ABCB1 (Homo sapiens)”, in data set [2], the Michaelis-Menten constant (Km) (in general, the concentration of substrate that gives half-maximal velocity) came out at 255 µM.

B1: ATP-binding cassette sub-family C member 2 (Homo sapiens) (protein)
chain: MLEKFCNSTFWNSSFLDSPEADLPLCFEQTVLVWIPLGYLWLLAPWQLLHVYKSRTKRSSTTKLYLAKQVFVGFLLILAAIELALVLTEDSGQATVPAVRYTNPSLYLGTWLLVLLIQYSRQWCVQKNSWFLSLFWILSILCGTFQFQTLIRTLLQGDNSNLAYSCLFFISYGFQILILIFSAFSENNESSNNPSSIASFLSSITYSWYDSIILKGYKRPLTLEDVWEVDEEMKTKTLVSKFETHMKRELQKARRALQRRQEKSSQQNSGARLPGLNKNQSQSQDALVLEDVEKKKKKSGTKKDVPKSWLMKALFKTFYMVLLKSFLLKLVNDIFTFVSPQLLKLLISFASDRDTYLWIGYLCAILLFTAALIQSFCLQCYFQLCFKLGVKVRTAIMASVYKKALTLSNLARKEYTVGETVNLMSVDAQKLMDVTNFMHMLWSSVLQIVLSIFFLWRELGPSVLAGVGVMVLVIPINAILSTKSKTIQVKNMKNKDKRLKIMNEILSGIKILKYFAWEPSFRDQVQNLRKKELKNLLAFSQLQCVVIFVFQLTPVLVSVVTFSVYVLVDSNNILDAQKAFTSITLFNILRFPLSMLPMMISSMLQASVSTERLEKYLGGDDLDTSAIRHDCNFDKAMQFSEASFTWEHDSEATVRDVNLDIMAGQLVAVIGPVGSGKSSLISAMLGEMENVHGHITIKGTTAYVPQQSWIQNGTIKDNILFGTEFNEKRYQQVLEACALLPDLEMLPGGDLAEIGEKGINLSGGQKQRISLARATYQNLDIYLLDDPLSAVDAHVGKHIFNKVLGPNGLLKGKTRLLVTHSMHFLPQVDEIVVLGNGTIVEKGSYSALLAKKGEFAKNLKTFLRHTGPEEEATVHDGSEEEDDDYGLISSVEEIPEDAASITMRRENSFRRTLSRSSRSNGRHLKSLRNSLKTRNVNSLKEDEELVKGQKLIKKEFIETGKVKFSIYLEYLQAIGLFSIFFIILAFVMNSVAFIGSNLWLSAWTSDSKIFNSTDYPASQRDMRVGVYGALGLAQGIFVFIAHFWSAFGFVHASNILHKQLLNNILRAPMRFFDTTPTGRIVNRFAGDISTVDDTLPQSLRSWITCFLGIISTLVMICMATPVFTIIVIPLGIIYVSVQMFYVSTSRQLRRLDSVTRSPIYSHFSETVSGLPVIRAFEHQQRFLKHNEVRIDTNQKCVFSWITSNRWLAIRLELVGNLTVFFSALMMVIYRDTLSGDTVGFVLSNALNITQTLNWLVRMTSEIETNIVAVERITEYTKVENEAPWVTDKRPPPDWPSKGKIQFNNYQVRYRPELDLVLRGITCDIGSMEKIGVVGRTGAGKSSLTNCLFRILEAAGGQIIIDGVDIASIGLHDLREKLTIIPQDPILFSGSLRMNLDPFNNYSDEEIWKALELAHLKSFVASLQLGLSHEVTEAGGNLSIGQRQLLCLGRALLRKSKILVLDEATAAVDLETDNLIQTTIQNEFAHCTVITIAHRLHTIMDSDKVMVLDNGKIIECGSPEELLQIPGPFYFMAKEAGIENVNSTKF
Turning to B1, the Km in data set [3] was 617 µM.
